In PMC3561947:

Target: His-tagged human polι P680A (pJRM86) (human)
Test: far-Western, overlay or dot blot

## in vitro translated 35S-labeled ubiquitin (from pBP129) (from UniProt P0CG47 1-76) (natural protein)
  percent of wild type (% of wild type): 40
